Source: the DeepSol protein solubility set

Test: soluble on expression in E. coli; label from the status in PepcDB or PDB records

Sequence | soluble on expression in E. coli
MGSDKIHHHHHHMKIYLVGGAVRDSLLGLPVTEKDWVVVGATPEHLLAQGYQQVGKDFPVFLHPISRDEYALARTERKSGKGYTGFVCHAEPDVTLEQDLLRRDLTINAIARTERGDLIDPYHGRRDLDNRVLRHVSDAFSEDPLRVLRVARFAARFAHLGFQIAEETMALMQKMAHEGELAFLTPERVWKETEKALGTSSPDVYFQVLRDCGALAVLFPEIDNLYGVPAPAKWHPEIDTGIHTMMTVAMAARLSPDIDVRFATLCHDLGKGLTPPELWPRHLGHGPAGVKLVEALCQRLRVPNPIRDLAKLVAEYHDLVHTVQVLQPKTLLKLFDAIDVWRKPQRLEQLALTSEADARGRTSFEENPYPQGNYLREAFRVASQVSSASVVADGFKGIDVRNELARRRIHALADWKAQQPDVSSTS | not soluble
SADSKEGVLPLTAASTAPISFGFTRTSARRRLADSGDGAGPSPEEKDFLKTVEGRELQSVKPQEAPKELVIPLIQNGHRRQPPARPPGPSTDTGALADGVVSQAVKELIAESKKSLEERENAGVDPTLAIPMIQKGCTPSGEGADSEPRAETVPEEANYEAVPVEAYGLAMLRGMGWKPGEGIGRTFNQVVKPRVNSLRPKGLGLGANLTEAQALTPTGPSRMPRPDEEQEKDKEDQPQGLVPGGAVVVLSGPHRGLYGKVEGLDPDNVRAMVRLAVGSRVVTVSEYYLRPVSQQEFDKNTLDLRQQNGTASSRKTLWNQELYIQQDNSERKRKHLPDRQDGPAAKSEKAAPRSQHWLHRDLRVRFVDNMYKGGQYYNTKMIIEDVLSPDTCVCRTDEGRVLEGLREDMLETLVPKAEGDRVMVVLGPQTGRVGHLLSRDRARSRALVQLPRENQVVELHYDAICQYMGPSDTDDD | soluble
MGSDKIHHHHHHMDLRGRLIPDYRIDTPVDAPLEYRPAVTWRCERCGKLPTRGPCTCGKRCYYCRHCLIFGKLRTCDRLVTDPRPLDPVRPDHHTELNLTSDQQRIAEAIVRTIDQRKRLLVHAVCGAGKTPMLFPGIERALSTNRRVLITAPRADVVRELTGHLRRAFQQATIVSLFGGSEDRLGIGDITISTTHQLIHYRACFDVVFIDEVDAFPYRTDRTLHRYVRQATAPGASLILLSATPSLRDRRLPTVRLMRRYHGFPLPTPRLQVPYGKHDVVDWVLTHAGKPRLLFVPQVEALETWQTCLQQQGITCETVHAADPDRITKVARFRQTTGVLLTTTILERGVTLINVQVAVLDADHSFSSAALIQISGRVGRSADFPEGDVVLFANDRSDAMYEAIDHIKRANREGFR | not soluble
MPKISSRDGGRPAQRTVNPIIVTRRGKIARLESGLTPQEAQIEDLVFLRKVLNRADIPYLLIRNHKNRPVLAINIELRAGLERALAAACATEPMYAKTIDEPGLSPVLVATDGLSQLVDPRVVRLYRRRIAPGGFRYGPAFGVELQFWVYEETVIRCPVENSLSRKVLPRNEITPTNVKLYGYKWPTLDGMFAPHASDVVFDIDMVFSWVDGSDPEFRARRMAQMSQYVVGEGDDAEARIRQIDELKYALRSVNMFAPWIRRIFIATDSTPPPWLAEHPKITIVRAEDHFSDRSALPTYNSHAVESQLHHIPGLSEHFLYSNDDMFFGRPLKASMFFSPGGVTRFIEAKTRIGLGANNPARSGFENAARVNRQLLFDRFGQVITRHLEHTAVPLRKSVLIEMEREFPEEFARTAASPFRSDTDISVTNSFYHYYALMTGRAVPQEKAKVLYVDTTSYAGLRLLPKLRKHRGYDFFCLNDGSFPEVPAAQRAERVVSFLERYFPIPAPWEKIAADVSRRDFAVPRTSAPSEGA | soluble
DKLTRQPFFIKLINYLQIHDDVTLRQIKRNFADTEHLERSIEDYVQAGYVLRENKHYYNAFELLENLDGLTLDSQIFVDDQSSIYQDLLALTFETYLSNQTNAALIIEKTDISRDALTLSNYFFKLNENFPLSRKQKPLYHLLGDVNPNYALKYMTTFLLKFWGKDVVKQKRPDIFVQALVLLGYLEQVGKQSYCLKMTFDKEKLIFAS | soluble
MGSDKIHHHHHHMNLLSLYHFFAGKASDKQKEAIKRWAESSPDNYETLCREKKIFDAGILLVDKKELFQKENAPLLYKLINYTVKIAAVVLLVVVSVTIYKYQELVKKSEVLQTILVPAGQRINIILPDSTFVCLNSNTKFSYPSVFATNNRKVKLDGEAYFEVSANKNKPFYVHTSKGEIKVLGTHFNLEAYSNADVFKTSLFEGKVRVRVKGNNIYLKPDQMVCYHKNGKIHLETIHDYDQFRWREGLICIKSAKLKDIMKTFTKYFGDSIVIQNKEVEHYKYTGKFRQSRGVINALRLLQKDAPFTIEQDEDKQIIYIK | not soluble
